Data reported in publication PMC2668795.

Molecular target: syntaxin1 (mouse (endogenous in brain synaptosomes)) (UniProt O35526)
Assay: co-IP; synaptosomes from wt, ASMko (7 months; also 1 month) or wt+Se mice, equal protein; 150 mM NaCl, 0.5% sodium deoxycholate, 1% NP40; syntaxin1 monoclonal antibody 4 h at 4°C, protein G sepharose beads overnight at 4°C; Western blot for syntaxin1, Munc18, SNAP25 and Vamp2

Chain of UniProt O35526 (O35526 whole entry): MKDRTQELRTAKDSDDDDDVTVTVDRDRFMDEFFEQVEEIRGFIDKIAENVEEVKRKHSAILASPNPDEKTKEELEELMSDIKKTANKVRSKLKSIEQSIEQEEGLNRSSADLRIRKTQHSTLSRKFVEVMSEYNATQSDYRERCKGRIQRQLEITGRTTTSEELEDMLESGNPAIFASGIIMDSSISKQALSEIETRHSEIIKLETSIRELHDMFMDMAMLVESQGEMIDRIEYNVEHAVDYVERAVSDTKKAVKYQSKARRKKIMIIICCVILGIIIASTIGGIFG

fold change of Munc18 co-precipitated with syntaxin1, ASMko versus wt synaptosomes: 1.9 fold
Substance: Munc18 (from UniProt O08599 1-594) (natural protein)
